We go through one substance from publication PMC4294777.

The test deals with Klp5-3FLAG (fission yeast) (UniProt O14343). The test can be described thus: co-IP; protein extracts (4 mg or 8 mg) of metaphase-arrested cut9-665 cells (36°C, 2.5 hours) added to protein A Dynabeads coated with anti-Flag antibodies; blotted with anti-Flag and anti-Myc.
UniProt O14343, sequence (O14343 whole entry): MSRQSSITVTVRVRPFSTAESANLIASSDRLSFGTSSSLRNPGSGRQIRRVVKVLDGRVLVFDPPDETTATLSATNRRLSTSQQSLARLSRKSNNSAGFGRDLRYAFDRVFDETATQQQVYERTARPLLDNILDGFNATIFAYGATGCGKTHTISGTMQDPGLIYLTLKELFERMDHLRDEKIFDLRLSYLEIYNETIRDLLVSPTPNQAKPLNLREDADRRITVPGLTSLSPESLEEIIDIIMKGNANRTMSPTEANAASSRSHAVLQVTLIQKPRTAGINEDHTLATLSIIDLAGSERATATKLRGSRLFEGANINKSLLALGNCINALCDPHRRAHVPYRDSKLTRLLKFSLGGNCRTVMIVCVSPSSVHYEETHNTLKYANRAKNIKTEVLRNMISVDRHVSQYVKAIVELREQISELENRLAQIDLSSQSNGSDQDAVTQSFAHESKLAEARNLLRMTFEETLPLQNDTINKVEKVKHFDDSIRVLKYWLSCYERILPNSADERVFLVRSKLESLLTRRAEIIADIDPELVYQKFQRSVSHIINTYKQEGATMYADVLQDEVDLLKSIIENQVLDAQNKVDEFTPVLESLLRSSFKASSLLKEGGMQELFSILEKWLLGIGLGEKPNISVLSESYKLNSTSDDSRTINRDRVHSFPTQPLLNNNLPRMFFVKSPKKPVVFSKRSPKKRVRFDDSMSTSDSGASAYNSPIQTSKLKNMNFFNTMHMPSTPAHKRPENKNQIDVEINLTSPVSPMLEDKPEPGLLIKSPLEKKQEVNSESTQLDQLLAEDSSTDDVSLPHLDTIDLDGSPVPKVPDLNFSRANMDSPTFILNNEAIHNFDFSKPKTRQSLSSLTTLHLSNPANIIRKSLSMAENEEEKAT

“Alp7-LA6-Myc (from UniProt Q9URY2 1-474) (natural protein)”: the reduction of binding compared to Alp7 was greater than 70%.
